In doi:10.1101/2022.10.04.510906 (bioRxiv, 2022):

Target: T1, V/A-ATPase D subunit (Thermus thermophilus, UniProt O87880 1-223)
T1 sequence: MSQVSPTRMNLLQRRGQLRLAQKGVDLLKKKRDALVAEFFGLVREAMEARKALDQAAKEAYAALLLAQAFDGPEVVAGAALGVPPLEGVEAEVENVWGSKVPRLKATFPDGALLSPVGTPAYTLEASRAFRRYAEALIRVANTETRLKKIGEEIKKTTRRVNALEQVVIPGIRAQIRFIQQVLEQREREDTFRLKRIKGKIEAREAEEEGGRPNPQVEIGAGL
Assay: cryo-EM structure

B1: V/A-ATPase F subunit (natural protein, Thermus thermophilus)
chain: MAVIADPETAQGFRLAGLEGYGASSAEEAQSLLETLVERGGYALVAVDEALLPDPERAVERLMRGRDLPVLLPIAGLKEAFQGHDVEGYMRELVRKTIGFDIKL
binding result: binds
